Laboratory results published in patent US20100047243A1 (published 2010).

Target: T1, recombinant cynomolgus macaque IGF-1R (IGF-1R-Fc fusion protein of Example 4) (cynomolgus macaque (Macaca fascicularis))
T1 construct: also called Cynomolgus IGF-1R; cyno IGF-1R
Test: Biacore T100, antibody captured on Protein A, recombinant cynomolgus IGF-1R analyte (256-16 nM), HBS-EP, 37 C
Procedure: Protein A was immobilised on a CM5 surface by primary amine coupling in accordance with the manufacturers standard protocols. Antibodies against IGF-1R were captured on this surface and after a period of stabilisation recombinant human or cynomolgus IGF-1R was injected over this captured surface. […] Data was analysed using the 1:1 model inherent to the Biacore machine, the work was carried out on the T100 using HBS-EP running buffer at 37° C.

T1 sequence (chain, as listed by the source limits assumed): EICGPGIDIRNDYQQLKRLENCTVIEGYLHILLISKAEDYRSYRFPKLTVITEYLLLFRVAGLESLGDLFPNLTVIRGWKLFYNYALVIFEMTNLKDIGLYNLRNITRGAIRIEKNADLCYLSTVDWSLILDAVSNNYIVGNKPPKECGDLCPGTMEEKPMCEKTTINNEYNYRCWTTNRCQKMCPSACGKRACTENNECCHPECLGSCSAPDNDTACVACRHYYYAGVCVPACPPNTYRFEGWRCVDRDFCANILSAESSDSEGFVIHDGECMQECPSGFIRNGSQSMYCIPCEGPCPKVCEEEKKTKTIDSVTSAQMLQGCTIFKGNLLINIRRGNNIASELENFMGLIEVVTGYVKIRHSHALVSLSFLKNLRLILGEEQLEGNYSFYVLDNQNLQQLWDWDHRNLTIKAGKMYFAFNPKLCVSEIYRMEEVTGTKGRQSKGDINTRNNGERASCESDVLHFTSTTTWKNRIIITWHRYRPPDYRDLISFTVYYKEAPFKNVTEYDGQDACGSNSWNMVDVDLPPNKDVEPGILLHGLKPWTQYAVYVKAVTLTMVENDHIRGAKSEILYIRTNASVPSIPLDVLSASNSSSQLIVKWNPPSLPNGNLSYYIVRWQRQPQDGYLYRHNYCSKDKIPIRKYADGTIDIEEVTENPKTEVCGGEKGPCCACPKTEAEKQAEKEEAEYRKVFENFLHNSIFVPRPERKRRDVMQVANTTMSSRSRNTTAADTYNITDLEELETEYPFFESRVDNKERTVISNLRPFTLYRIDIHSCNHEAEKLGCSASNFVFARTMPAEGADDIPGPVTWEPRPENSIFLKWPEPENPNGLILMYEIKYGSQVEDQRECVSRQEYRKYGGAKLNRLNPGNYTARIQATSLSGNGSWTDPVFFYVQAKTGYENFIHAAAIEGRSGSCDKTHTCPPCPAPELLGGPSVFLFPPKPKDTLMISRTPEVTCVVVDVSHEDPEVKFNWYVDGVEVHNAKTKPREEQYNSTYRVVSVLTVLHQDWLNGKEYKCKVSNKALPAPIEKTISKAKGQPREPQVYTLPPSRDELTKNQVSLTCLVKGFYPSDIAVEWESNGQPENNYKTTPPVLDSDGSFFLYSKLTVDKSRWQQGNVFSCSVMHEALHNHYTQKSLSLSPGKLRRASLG

B1: 6E11 chimeric antibody (antibody, human IgG1, kappa, V domains shown)
VH: EVQLQQSGPELVKPGASVRISCKASGYAFTDYYMNWVKQSHGKSLEWVANINPNNGGTNYNQKFKDKATLTVDKSSNTAYMELRSLTSEDTAVYYCARWILYYGRSKWYFDVWGTGTLVTVSS
VL: DVLMTQTPLSLPVSLGDHASISCRSSQSIVQSNGDTYLEWYLQKPGQSPKLLIYRISNRFSGVPDRFSGSGSGTDFTLKISRVEAEDLGVYYCFQGSHVPYTFGGGTKLEIKR
notes: Murine 6E11 variable domains on human IgG1/kappa wild type constant regions; also called 6E11 chimera; 6E11 chimaera
With B1 the Kd was 0.19 nM.
